Results taken from publication PMC10815899 (2024).

Key:
[1] = biological target: T1, epithelial adhesin 6 of N. glabratus (N. glabratus (endogenous), UniProt Q6FX55 1-715); test: BLI
T1 chain: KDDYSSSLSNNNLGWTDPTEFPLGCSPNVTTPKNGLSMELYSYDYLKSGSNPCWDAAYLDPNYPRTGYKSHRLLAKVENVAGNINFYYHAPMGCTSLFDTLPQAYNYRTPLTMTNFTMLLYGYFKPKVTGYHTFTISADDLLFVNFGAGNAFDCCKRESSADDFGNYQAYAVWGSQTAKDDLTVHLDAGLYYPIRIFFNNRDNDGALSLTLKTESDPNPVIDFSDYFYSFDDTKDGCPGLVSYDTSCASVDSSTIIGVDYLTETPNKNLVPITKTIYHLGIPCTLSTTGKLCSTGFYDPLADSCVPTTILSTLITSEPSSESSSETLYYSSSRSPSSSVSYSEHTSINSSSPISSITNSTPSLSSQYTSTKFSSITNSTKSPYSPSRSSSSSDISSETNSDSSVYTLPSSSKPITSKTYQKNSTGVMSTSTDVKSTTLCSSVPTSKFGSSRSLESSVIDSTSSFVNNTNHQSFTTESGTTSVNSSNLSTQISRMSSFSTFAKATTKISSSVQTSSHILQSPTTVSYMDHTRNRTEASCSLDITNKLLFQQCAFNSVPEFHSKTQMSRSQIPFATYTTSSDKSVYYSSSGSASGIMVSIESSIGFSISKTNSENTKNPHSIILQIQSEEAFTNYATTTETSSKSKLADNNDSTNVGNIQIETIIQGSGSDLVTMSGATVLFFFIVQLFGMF

[2] = biological target: T1, epithelial adhesin 6 of N. glabratus; test: SPR
[3] = biological target: T1, epithelial adhesin 6 of N. glabratus; test: BLI

B1: cytoplasmic Nakaseomyces glabratus glyceraldehyde 3-phosphate dehydrogenase (enzyme)
chain: MVRIAINGFGRIGRLVLRVALSRSNIEVVAVNDPFITTDYAAYMFKYDSTHGRYAGEVTHDDKHIIIDGKKIAVHQERDPANLPWGSENIDIAIDSTGVFKELDTAQKHIDAGAKKVVITAPSSTAPMFVVGVNEDKYTSDLKIVSNASCTTNCLAPLAKVIDEAFGIEEGLMTTVHSLTATQKTVDGPSHKDWRGGRTASGNIIPSSTGAAKAVGKVLPQLQGKLTGMAFRVPTVDVSVVDLTVKLQKETTYDEIKKVIKQASEGKLKGVLGYTEDAVVSSDFLGDSRSSIFDASAGIQLSPKFVKLVSWYDNEYGYSTRVVDLVEHVAKN
modifications: biotin (NHS-biotin) in the microplate ligand-binding assays
[1]
  Kd: 6.89 nM
[2]
  koff: 0.000209 s⁻¹
[3]
  koff: 0.00195 s⁻¹
